Results from the supplement of paper PMC7877785.
± gives the uncertainty stated by the source.

Assay: self-splicing fitness, log relative to wild type (ln ratio); higher = more splicing; Tetrahymena group I intron in knt gene, E. coli kanamycin selection, DiMSum; sequences stand for … in CUCUCU…GGAGGGAAAAGUUAUCAGGCAUGCACCUGGUAGCUAGUCUUUAAACCAAUAGAUUGCAUCGGUUUAAAAGGCAAGACCGUCAAAUUGCGGGAAAGGGGUCAACAGCCGUUCAGUACCAAGUCUCAGGGGAAACUUUGAGAUGGCCUUGCAAAGGGUAUGGUAAUAAGCUGACGGACAUGGUCCUAACCACGCAGCCAAGUCCUAAGUCAACAGAUCUUCUGUUGAUAUGGAUGCAGUUCACAGACUAAAUGUCGGUCGGGGAAGAUGUAUUCUUCUCAUAAGAUAUAGUCGGACCUCUCCUUAAUGGGAGCUAGCGGAUGAAGUGAUGCAACACUGGAGCCGCUGGGAACUAAUUUGUAUGCGAAAGUAUAUUGAUUAGUUUUGGAGUACUCGUGGUCG
Method in brief: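 Colonies from six replicate transformations of E. coli BL21(DE3) were pooled and amplicon-sequenced on an Illumina HiSeq 2500. The library placed an intron with all eight P1ex-region nucleotides randomised inside the knt kanamycin-resistance gene on pET-22b(+), and cells grew overnight at 37°C or 30°C on LB agar with or without 25 μg/mL kanamycin (plus 100 μg/mL carbenicillin, 50 μM IPTG, 0.2% rhamnose). Fitness is the DiMSum error-weighted combination of wild-type-normalised replicate fold changes, kanamycin versus none.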

| Sequence | self-splicing fitness (ln) (30 °C) | self-splicing fitness (ln) (37 °C) |
| --- | --- | --- |
| CCGUAGCAAUAUUACGUGCC | -4.11 ± 0.47 | -2.33 ± 0.28 |
| CCGUAGCAAUAUUACGUUGA | -2.67 ± 0.33 | -3.13 ± 0.29 |
| CCUAAGCAAUAUUACGACAG | -0.604 ± 0.081 | -1 ± 0.11 |
| CCUAAGCAAUAUUACGACCG | -1.24 ± 0.14 | -0.121 ± 0.13 |
| CCUAAGCAAUAUUACGAUCG | -0.805 ± 0.15 | -0.185 ± 0.17 |
| CCUAAGCAAUAUUACGAUUA | -3.04 ± 0.19 | -2.62 ± 0.22 |
| CCUAAGCAAUAUUACGCAUA | -4.08 ± 0.28 | -2.77 ± 0.27 |
| CCUAAGCAAUAUUACGCAUC | -2.22 ± 0.13 | -1.91 ± 0.13 |
| CCUAAGCAAUAUUACGCCGU | -2.92 ± 0.19 | -3.22 ± 0.29 |
| CCUAAGCAAUAUUACGCGAA | -2.23 ± 0.22 | -2.61 ± 0.29 |
| CCUAAGCAAUAUUACGCGAC | -2.41 ± 0.3 | -3.61 ± 0.39 |
| CCUAAGCAAUAUUACGCUGA | -2.63 ± 0.21 | -1.96 ± 0.32 |
| CCUAAGCAAUAUUACGGCAC | -3.72 ± 0.25 | -2.62 ± 0.28 |
| CCUAAGCAAUAUUACGGUUC | -3.88 ± 0.23 | -2.59 ± 0.22 |
| CCUAAGCAAUAUUACGUAGA | -1.33 ± 0.08 | -0.523 ± 0.1 |
| CCUAAGCAAUAUUACGUAGC | -4.03 ± 0.34 | -2.21 ± 0.23 |
| CCUAAGCAAUAUUACGUAUA | -3 ± 0.15 | -2.67 ± 0.17 |
| CCUAAGCAAUAUUACGUCCU | -3.74 ± 0.33 | -2.04 ± 0.24 |
| CCUAAGCAAUAUUACGUUCC | -3.6 ± 0.3 | -1.8 ± 0.34 |
| CCUAAGCAAUAUUACGUUGG | -3.45 ± 0.27 | -2.96 ± 0.24 |
| CCUCAGCAAUAUUACGAAAU | -3.99 ± 0.28 | -2.15 ± 0.34 |
| CCUCAGCAAUAUUACGAAGA | -3.71 ± 0.3 | -2.31 ± 0.25 |
| CCUCAGCAAUAUUACGACAC | -4.04 ± 0.28 | -2.5 ± 0.29 |
| CCUCAGCAAUAUUACGACUA | -3.2 ± 0.43 | -3.06 ± 0.32 |
| CCUCAGCAAUAUUACGAGAC | -3.31 ± 0.32 | -2.88 ± 0.35 |

| Sequence | self-splicing fitness (ln) (30 °C) | self-splicing fitness (ln) (37 °C) |
| --- | --- | --- |
| CCUCAGCAAUAUUACGAUAC | -3.21 ± 0.26 | -3.08 ± 0.47 |
| CCUCAGCAAUAUUACGCAGC | -3.42 ± 0.14 | -2.49 ± 0.17 |
| CCUCAGCAAUAUUACGCAGG | -3.84 ± 0.25 | -2.5 ± 0.3 |
| CCUCAGCAAUAUUACGCCGG | -3.32 ± 0.21 | -0.587 ± 0.15 |
| CCUCAGCAAUAUUACGCCGU | -3.05 ± 0.23 | -2.08 ± 0.25 |
| CCUCAGCAAUAUUACGCGAG | -2.89 ± 0.1 | -1.76 ± 0.11 |
| CCUCAGCAAUAUUACGCGUA | -2.71 ± 0.21 | -3.37 ± 0.28 |
| CCUCAGCAAUAUUACGGACA | -3.54 ± 0.19 | -3.15 ± 0.26 |
| CCUCAGCAAUAUUACGGAUU | -4.3 ± 0.39 | -2.56 ± 0.22 |
| CCUCAGCAAUAUUACGGUAC | -4.96 ± 0.32 | -2.26 ± 0.26 |
| CCUCAGCAAUAUUACGUAAG | -0.219 ± 0.059 | 0.292 ± 0.082 |
| CCUCAGCAAUAUUACGUACA | -3.73 ± 0.29 | -2.78 ± 0.34 |
| CCUCAGCAAUAUUACGUACC | -4.27 ± 0.25 | -3.42 ± 0.39 |
| CCUCAGCAAUAUUACGUGAA | -3.66 ± 0.2 | -2.22 ± 0.2 |
| CCUCAGCAAUAUUACGUGUC | -3.35 ± 0.13 | -2.48 ± 0.2 |
| CCUGAGCAAUAUUACGACGU | -2.28 ± 0.14 | -0.0399 ± 0.14 |
| CCUGAGCAAUAUUACGAGCU | – | -1.95 ± 0.42 |
| CCUGAGCAAUAUUACGAGUC | – | -2.36 ± 0.34 |
| CCUGAGCAAUAUUACGAGUG | -1.44 ± 0.097 | -0.572 ± 0.12 |
| CCUGAGCAAUAUUACGCAUG | -4.37 ± 0.34 | -2.27 ± 0.28 |
| CCUGAGCAAUAUUACGCGGC | -3.57 ± 0.2 | -2.55 ± 0.22 |
| CCUGAGCAAUAUUACGCGGG | -3.41 ± 0.26 | -2.22 ± 0.34 |
| CCUGAGCAAUAUUACGCUAA | -3.04 ± 0.2 | -2.88 ± 0.25 |
| CCUGAGCAAUAUUACGCUUG | – | -1.23 ± 0.28 |
| CCUGAGCAAUAUUACGGAAA | -3.53 ± 0.35 | -1.92 ± 0.28 |

| Sequence | self-splicing fitness (ln) (30 °C) | self-splicing fitness (ln) (37 °C) |
| --- | --- | --- |
| CCUGAGCAAUAUUACGGCAG | -2.92 ± 0.34 | -0.802 ± 0.17 |
| CCUGAGCAAUAUUACGGCGA | -3.62 ± 0.46 | -2.62 ± 0.38 |
| CCUGAGCAAUAUUACGGGUA | -2.9 ± 0.27 | -2.07 ± 0.31 |
| CCUGAGCAAUAUUACGGGUG | -2.65 ± 0.12 | -1.81 ± 0.14 |
| CCUGAGCAAUAUUACGGUUC | -3.21 ± 0.23 | -3.06 ± 0.4 |
| CCUUAGCAAUAUUACGAAGU | -2.21 ± 0.15 | -1.93 ± 0.12 |
| CCUUAGCAAUAUUACGACUU | -3.8 ± 0.35 | -2.73 ± 0.32 |
| CCUUAGCAAUAUUACGAGAC | – | -1.83 ± 0.25 |
| CCUUAGCAAUAUUACGAGAU | -2.62 ± 0.26 | -2.79 ± 0.21 |
| CCUUAGCAAUAUUACGAGCC | -3.38 ± 0.34 | – |
| CCUUAGCAAUAUUACGAUUU | -4.25 ± 0.42 | -2.44 ± 0.35 |
| CCUUAGCAAUAUUACGCAAC | – | -2.04 ± 0.48 |
| CCUUAGCAAUAUUACGCAGU | -3.81 ± 0.23 | -2.32 ± 0.23 |
| CCUUAGCAAUAUUACGCAUG | -3.78 ± 0.19 | -2.14 ± 0.18 |
| CCUUAGCAAUAUUACGCCGU | -2.66 ± 0.22 | -2.18 ± 0.24 |
| CCUUAGCAAUAUUACGCCUC | – | -2.65 ± 0.41 |
| CCUUAGCAAUAUUACGCGGC | -2.89 ± 0.27 | -3.63 ± 0.42 |
| CCUUAGCAAUAUUACGCUUU | -3.64 ± 0.31 | -2.46 ± 0.22 |
| CCUUAGCAAUAUUACGGAAC | – | -2.73 ± 0.44 |
| CCUUAGCAAUAUUACGUCAC | -3.46 ± 0.26 | -2.21 ± 0.29 |
| CCUUAGCAAUAUUACGUCAU | -3.85 ± 0.21 | -2.96 ± 0.24 |
| CCUUAGCAAUAUUACGUGCU | -3.4 ± 0.18 | -2.83 ± 0.31 |
| CCUUAGCAAUAUUACGUGGC | -4.19 ± 0.31 | -2.88 ± 0.31 |
| CCUUAGCAAUAUUACGUGGG | -2.78 ± 0.16 | -2.35 ± 0.16 |
| CCUUAGCAAUAUUACGUUAU | -2.42 ± 0.14 | -2.45 ± 0.28 |

| Sequence | self-splicing fitness (ln) (30 °C) | self-splicing fitness (ln) (37 °C) |
| --- | --- | --- |
| CGAAAGCAAUAUUACGAAAA | -2.38 ± 0.29 | -1.32 ± 0.23 |
| CGAAAGCAAUAUUACGAAUG | -0.194 ± 0.057 | 0.263 ± 0.08 |
| CGAAAGCAAUAUUACGACGG | 0.0482 ± 0.089 | 0.569 ± 0.12 |
| CGAAAGCAAUAUUACGACUG | -0.103 ± 0.064 | -0.811 ± 0.078 |
| CGAAAGCAAUAUUACGAGCA | -2.3 ± 0.25 | -0.869 ± 0.24 |
| CGAAAGCAAUAUUACGAGCC | -2.18 ± 0.32 | -1.19 ± 0.3 |
| CGAAAGCAAUAUUACGAUCG | -3.41 ± 0.43 | -1.34 ± 0.29 |
| CGAAAGCAAUAUUACGCACU | -0.573 ± 0.11 | 0.0275 ± 0.13 |
| CGAAAGCAAUAUUACGCGAC | -2.36 ± 0.19 | -3.26 ± 0.25 |
| CGAAAGCAAUAUUACGCGAU | -2.86 ± 0.21 | -2.15 ± 0.34 |
| CGAAAGCAAUAUUACGCGGU | -2.88 ± 0.17 | -2.41 ± 0.18 |
| CGAAAGCAAUAUUACGCGUA | -2.68 ± 0.19 | -1.95 ± 0.18 |
| CGAAAGCAAUAUUACGCUGC | -3.68 ± 0.23 | -2.69 ± 0.19 |
| CGAAAGCAAUAUUACGGAUG | -0.462 ± 0.066 | -0.00232 ± 0.091 |
| CGAAAGCAAUAUUACGGCCG | -1.64 ± 0.14 | -0.462 ± 0.21 |
| CGAAAGCAAUAUUACGGGCG | -0.207 ± 0.098 | -0.157 ± 0.13 |
| CGAAAGCAAUAUUACGGUCU | -0.258 ± 0.071 | -0.209 ± 0.089 |
| CGAAAGCAAUAUUACGUAAG | -0.262 ± 0.049 | -0.000374 ± 0.07 |
| CGAAAGCAAUAUUACGUUGU | -3.63 ± 0.15 | -2.7 ± 0.15 |
| CGAAAGCAAUAUUACGUUUG | -2.33 ± 0.12 | -1.74 ± 0.14 |
| CGAAAGCAAUAUUACGUUUU | -4.51 ± 0.24 | -2.31 ± 0.18 |
| CGACAGCAAUAUUACGAAAG | -1.22 ± 0.13 | -0.409 ± 0.17 |
